From article PMC9813358, “Insights into the GSDMB-mediated cellular lysis and its targeting by IpaH7.8” (Nature Communications, 2023) come the findings set out here.

B1: human GSDMD [human] / IpaH7.8 protein (residues 23–565) [Shigella flexneri] (parent)
chain 1: MGSAFERVVRRVVQELDHGGEFIPVTSLQSSTGFQPYCLVVRKPSSSWFWKPRYKCVNLSIKDILEPDAAEPDVQRGRSFHFYDAMDGQIQGSVELAAPGQAKIAGGAAVSDSSSTSMNVYSLSVDPNTWQTLLHERHLRQPEHKVLQQLRSRGDNVYVVTEVLQTQKEVEVTRTHKREGSGRFSLPGATCLQGEGQGHLSQKKTVTIPSGSTLAFRVAQLVIDSDLDVLLFPDKKQRTFQPPATGHKRSTSEGAWPQLPSGLSMMRCLHNFLTDGVPAEGAFTEDFQGLRAEVETISKELELLDRELCQLLLEGLEGVLRDQLALRALEEALEQGQSLGPVEPLDGPAGAVLECLVLSSGMLVPELAIPVVYLLGALTMLSETQHKLLAEALESQTLLGPLELVGSLLEQSAPWQERSTMSLPPGLLGNSWGEGAPAWVLLDECGLELGEDTPHVCWEPQAQGRMCALYASLALLSGLSQEPH
chain 2: SNEHYLRILTEWEKNSSPGEERGIAFNRLSQCFQNQEAVLNLSDLNLTSLPELPKHISALIVENNKLTSLPKLPAFLKELNADNNRLSVIPELPESLTTLSVRSNQLENLPVLPNHLTSLFVENNRLYNLPALPEKLKFLHVYYNRLTTLPDLPDKLEILCAQRNNLVTFPQFSDRNNIRQKEYYFHFNQITTLPESFSQLDSSYRINISGNPLSTRVLQSLQRLTSSPDYHGPQIYFSMSDGQQNTLHRPLADAVTAWFPENKQSDVSQIWHAFEHEEHANTFSAFLDRLSDTVSARNTSGFREQVAAWLEKLSASAELRQQSFAVAADATESCEDRVALTWNNLRKTLLVHQASEGLFDNDTGALLSLGREMFRLEILEDIARDKVRTLHFVDEIEVYLAFQTMLAEKLQLSTAVKEMRFYGVSGVTANDLRTAEAMVRSREENEFTDWFSLWGPWHAVLKRTEADRWAQAEEQKYEMLENEYSQRVADRLKASGLSGDADAEREAGAQVMRETEQQIYRQLTDEVLALRLSENGSRLHHS

Variants of B1 are the subject of this assay. As to the kind of experiment: ITC. The settings on record: with IpaH7.8 protein (residues 23–565) [Shigella flexneri].
Regarding chain 1 S124R, the Kd came out at 230 nM.
